Experimental data as given in patent US20130011378A1, “Stable formulations of a hyaluronan-degrading enzyme” (priority 2011, published 2013).

Assay: RP-HPLC: insulin apparent solubility / percent recovery
Conditions: 7 days at 2-8° C.
Procedure, shortened: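 Vial samples withdrawn at each time point, centrifuged, held at 4 °C, run in duplicate by RP-HPLC. Apparent solubility = combined insulin main and desamido peak areas as percent versus standards/initial formulation; purity = main insulin peak as percent of all insulin species.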

Insulin Aspart
Solubility of Insulin Aspart, % remaining of the original concentration (0.2% methylparaben + […] m-cresol, pH 6.6, NaCl 50 mM): 57.7%
Solubility of Insulin Aspart, % remaining of the original concentration (0.2% methylparaben + […] m-cresol, pH 6.6, NaCl 80 mM): 32.1%
Solubility of Insulin Aspart, % remaining of the original concentration (0.2% methylparaben + […] m-cresol, pH 6.6, NaCl 110 mM): 21.1%
Solubility of Insulin Aspart, % remaining of the original concentration (0.2% methylparaben + […] m-cresol, pH 6.6, NaCl 140 mM): 14.7%
Solubility of Insulin Aspart, % remaining of the original concentration (0.2% methylparaben + […] m-cresol, pH 6.8, NaCl 50 mM): 97.2%
Solubility of Insulin Aspart, % remaining of the original concentration (0.2% methylparaben + […] m-cresol, pH 6.8, NaCl 80 mM): 84.1%
Solubility of Insulin Aspart, % remaining of the original concentration (0.2% methylparaben + […] m-cresol, pH 6.8, NaCl 110 mM): 54.2%
Solubility of Insulin Aspart, % remaining of the original concentration (0.2% methylparaben + […] m-cresol, pH 6.8, NaCl 140 mM): 32.2%
Solubility of Insulin Aspart, % remaining of the original concentration (0.2% methylparaben + […] m-cresol, pH 7.0, NaCl 50 mM): 98.7%
Solubility of Insulin Aspart, % remaining of the original concentration (0.2% methylparaben + […] m-cresol, pH 7.0, NaCl 80 mM): 100.2%
Solubility of Insulin Aspart, % remaining of the original concentration (0.2% methylparaben + […] m-cresol, pH 7.0, NaCl 110 mM): 96.3%
Solubility of Insulin Aspart, % remaining of the original concentration (0.2% methylparaben + […] m-cresol, pH 7.0, NaCl 140 mM): 67.9%
Solubility of Insulin Aspart, % remaining of the original concentration (0.2% methylparaben + […] m-cresol, pH 7.2, NaCl 50 mM): 99.0%
Solubility of Insulin Aspart, % remaining of the original concentration (0.2% methylparaben + […] m-cresol, pH 7.2, NaCl 80 mM): 100.2%
Solubility of Insulin Aspart, % remaining of the original concentration (0.2% methylparaben + […] m-cresol, pH 7.2, NaCl 110 mM): 99.5%
Solubility of Insulin Aspart, % remaining of the original concentration (0.2% methylparaben + […] m-cresol, pH 7.2, NaCl 140 mM): 101.6%
Solubility of Insulin Aspart, % remaining of the original concentration (0.2% methylparaben + […] m-cresol, pH 7.4, NaCl 50 mM): 99.1%
Solubility of Insulin Aspart, % remaining of the original concentration (0.2% methylparaben + […] m-cresol, pH 7.4, NaCl 80 mM): 100.5%
Solubility of Insulin Aspart, % remaining of the original concentration (0.2% methylparaben + […] m-cresol, pH 7.4, NaCl 110 mM): 99.6%
Solubility of Insulin Aspart, % remaining of the original concentration (0.2% methylparaben + […] m-cresol, pH 7.4, NaCl 140 mM): 99.6%
Solubility of Insulin Aspart, % remaining of the original concentration (0.2% methylparaben + […] m-cresol, pH 7.6, NaCl 50 mM): 99.3%
Solubility of Insulin Aspart, % remaining of the original concentration (0.2% methylparaben + […] m-cresol, pH 7.6, NaCl 80 mM): 100.6%
Solubility of Insulin Aspart, % remaining of the original concentration (0.2% methylparaben + […] m-cresol, pH 7.6, NaCl 110 mM): 99.8%
Solubility of Insulin Aspart, % remaining of the original concentration (0.2% methylparaben + […] m-cresol, pH 7.6, NaCl 140 mM): 99.8%
Solubility of Insulin Aspart, % remaining of the original concentration (0.2% phenol + […] m-cresol, pH 6.6, NaCl 50 mM): 91.8%
Solubility of Insulin Aspart, % remaining of the original concentration (0.2% phenol + […] m-cresol, pH 6.6, NaCl 80 mM): 59.2%
Solubility of Insulin Aspart, % remaining of the original concentration (0.2% phenol + […] m-cresol, pH 6.6, NaCl 110 mM): 58.0%
Solubility of Insulin Aspart, % remaining of the original concentration (0.2% phenol + […] m-cresol, pH 6.6, NaCl 140 mM): 39.3%
Solubility of Insulin Aspart, % remaining of the original concentration (0.2% phenol + […] m-cresol, pH 6.8, NaCl 50 mM): 98.8%
Solubility of Insulin Aspart, % remaining of the original concentration (0.2% phenol + […] m-cresol, pH 6.8, NaCl 80 mM): 91.8%
Solubility of Insulin Aspart, % remaining of the original concentration (0.2% phenol + […] m-cresol, pH 6.8, NaCl 110 mM): 72.8%
Solubility of Insulin Aspart, % remaining of the original concentration (0.2% phenol + […] m-cresol, pH 6.8, NaCl 140 mM): 50.9%
Solubility of Insulin Aspart, % remaining of the original concentration (0.2% phenol + […] m-cresol, pH 7.0, NaCl 50 mM): 99.1%
Solubility of Insulin Aspart, % remaining of the original concentration (0.2% phenol + […] m-cresol, pH 7.0, NaCl 80 mM): 100.6%
Solubility of Insulin Aspart, % remaining of the original concentration (0.2% phenol + […] m-cresol, pH 7.0, NaCl 110 mM): 99.9%
Solubility of Insulin Aspart, % remaining of the original concentration (0.2% phenol + […] m-cresol, pH 7.0, NaCl 140 mM): 88.9%
Solubility of Insulin Aspart, % remaining of the original concentration (0.2% phenol + […] m-cresol, pH 7.2, NaCl 50 mM): 99.1%
Solubility of Insulin Aspart, % remaining of the original concentration (0.2% phenol + […] m-cresol, pH 7.2, NaCl 80 mM): 100.5%
Solubility of Insulin Aspart, % remaining of the original concentration (0.2% phenol + […] m-cresol, pH 7.2, NaCl 110 mM): 100.0%
Solubility of Insulin Aspart, % remaining of the original concentration (0.2% phenol + […] m-cresol, pH 7.2, NaCl 140 mM): 99.7%
Solubility of Insulin Aspart, % remaining of the original concentration (0.2% phenol + […] m-cresol, pH 7.4, NaCl 50 mM): 99.2%
Solubility of Insulin Aspart, % remaining of the original concentration (0.2% phenol + […] m-cresol, pH 7.4, NaCl 80 mM): 100.6%
Solubility of Insulin Aspart, % remaining of the original concentration (0.2% phenol + […] m-cresol, pH 7.4, NaCl 110 mM): 100.0%
Solubility of Insulin Aspart, % remaining of the original concentration (0.2% phenol + […] m-cresol, pH 7.4, NaCl 140 mM): 99.7%
Solubility of Insulin Aspart, % remaining of the original concentration (0.2% phenol + […] m-cresol, pH 7.6, NaCl 50 mM): 99.2%
Solubility of Insulin Aspart, % remaining of the original concentration (0.2% phenol + […] m-cresol, pH 7.6, NaCl 80 mM): 100.8%
Solubility of Insulin Aspart, % remaining of the original concentration (0.2% phenol + […] m-cresol, pH 7.6, NaCl 110 mM): 100.2%
Solubility of Insulin Aspart, % remaining of the original concentration (0.2% phenol + […] m-cresol, pH 7.6, NaCl 140 mM): 99.8%
Solubility of Insulin Aspart, % remaining of the original concentration ([…] phenol + […] m-cresol, pH 6.6, NaCl 50 mM): 97.9%
Solubility of Insulin Aspart, % remaining of the original concentration ([…] phenol + […] m-cresol, pH 6.6, NaCl 80 mM): 86.3%
Solubility of Insulin Aspart, % remaining of the original concentration ([…] phenol + […] m-cresol, pH 6.6, NaCl 110 mM): 54.4%
Solubility of Insulin Aspart, % remaining of the original concentration ([…] phenol + […] m-cresol, pH 6.6, NaCl 140 mM): 38.3%
Solubility of Insulin Aspart, % remaining of the original concentration ([…] phenol + […] m-cresol, pH 6.8, NaCl 50 mM): 99.8%
Solubility of Insulin Aspart, % remaining of the original concentration ([…] phenol + […] m-cresol, pH 6.8, NaCl 80 mM): 97.9%
Solubility of Insulin Aspart, % remaining of the original concentration ([…] phenol + […] m-cresol, pH 6.8, NaCl 110 mM): 97.5%
Solubility of Insulin Aspart, % remaining of the original concentration ([…] phenol + […] m-cresol, pH 6.8, NaCl 140 mM): 60.5%
Solubility of Insulin Aspart, % remaining of the original concentration ([…] phenol + […] m-cresol, pH 7.0, NaCl 50 mM): 99.7%
Solubility of Insulin Aspart, % remaining of the original concentration ([…] phenol + […] m-cresol, pH 7.0, NaCl 80 mM): 99.3%
Solubility of Insulin Aspart, % remaining of the original concentration ([…] phenol + […] m-cresol, pH 7.0, NaCl 110 mM): 99.3%
Solubility of Insulin Aspart, % remaining of the original concentration ([…] phenol + […] m-cresol, pH 7.0, NaCl 140 mM): 100.2%
Solubility of Insulin Aspart, % remaining of the original concentration ([…] phenol + […] m-cresol, pH 7.2, NaCl 50 mM): 99.1%
Solubility of Insulin Aspart, % remaining of the original concentration ([…] phenol + […] m-cresol, pH 7.2, NaCl 80 mM): 99.2%
Solubility of Insulin Aspart, % remaining of the original concentration ([…] phenol + […] m-cresol, pH 7.2, NaCl 110 mM): 99.2%
Solubility of Insulin Aspart, % remaining of the original concentration ([…] phenol + […] m-cresol, pH 7.2, NaCl 140 mM): 101.1%
Solubility of Insulin Aspart, % remaining of the original concentration ([…] phenol + […] m-cresol, pH 7.4, NaCl 50 mM): 100.0%
Solubility of Insulin Aspart, % remaining of the original concentration ([…] phenol + […] m-cresol, pH 7.4, NaCl 80 mM): 99.6%
Solubility of Insulin Aspart, % remaining of the original concentration ([…] phenol + […] m-cresol, pH 7.4, NaCl 110 mM): 99.5%
Solubility of Insulin Aspart, % remaining of the original concentration ([…] phenol + […] m-cresol, pH 7.4, NaCl 140 mM): 101.1%
Solubility of Insulin Aspart, % remaining of the original concentration ([…] phenol + […] m-cresol, pH 7.6, NaCl 50 mM): 100.1%
Solubility of Insulin Aspart, % remaining of the original concentration ([…] phenol + […] m-cresol, pH 7.6, NaCl 80 mM): 99.7%
Solubility of Insulin Aspart, % remaining of the original concentration ([…] phenol + […] m-cresol, pH 7.6, NaCl 110 mM): 99.4%
Solubility of Insulin Aspart, % remaining of the original concentration ([…] phenol + […] m-cresol, pH 7.6, NaCl 140 mM): 101.1%
